Data published in the supplement of paper PMC7877785.
± gives the uncertainty stated by the source.

Test: self-splicing fitness, log relative to wild type (ln ratio); higher = more splicing; Tetrahymena group I intron in knt gene, E. coli kanamycin selection, DiMSum; sequences stand for … in CUCUCU…GGAGGGAAAAGUUAUCAGGCAUGCACCUGGUAGCUAGUCUUUAAACCAAUAGAUUGCAUCGGUUUAAAAGGCAAGACCGUCAAAUUGCGGGAAAGGGGUCAACAGCCGUUCAGUACCAAGUCUCAGGGGAAACUUUGAGAUGGCCUUGCAAAGGGUAUGGUAAUAAGCUGACGGACAUGGUCCUAACCACGCAGCCAAGUCCUAAGUCAACAGAUCUUCUGUUGAUAUGGAUGCAGUUCACAGACUAAAUGUCGGUCGGGGAAGAUGUAUUCUUCUCAUAAGAUAUAGUCGGACCUCUCCUUAAUGGGAGCUAGCGGAUGAAGUGAUGCAACACUGGAGCCGCUGGGAACUAAUUUGUAUGCGAAAGUAUAUUGAUUAGUUUUGGAGUACUCGUGGUCG
In short: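 Library with all eight P1ex-region intron nucleotides randomised, intron inside the knt kanamycin-resistance gene on pET-22b(+), in E. coli BL21(DE3). Cells grew overnight at 37°C or 30°C on LB agar with or without 25 μg/mL kanamycin (plus 100 μg/mL carbenicillin, 50 μM IPTG, 0.2% rhamnose), in six replicate transformations. Pooled colonies were amplicon-sequenced on Illumina HiSeq 2500. DiMSum fitness is the error-weighted combination of wild-type-normalised replicate fold changes, kanamycin versus none.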

Row | Sequence | self-splicing fitness (ln) (30 °C) | self-splicing fitness (ln) (37 °C)
1 | CAGGAGCAAUAUUACGAGGU | -2.48 ± 0.2 | -2.84 ± 0.25
2 | CAGGAGCAAUAUUACGCCCA | -2.13 ± 0.38 | -1.18 ± 0.27
3 | CAGGAGCAAUAUUACGCCGA | -1.75 ± 0.4 | 
4 | CAGGAGCAAUAUUACGCCUU | -1.86 ± 0.24 | -1.99 ± 0.33
5 | CAGGAGCAAUAUUACGCGAG | -2.59 ± 0.23 | -1.59 ± 0.16
6 | CAGGAGCAAUAUUACGCGGC | -1.43 ± 0.36 | -1.14 ± 0.41
7 | CAGGAGCAAUAUUACGCUUU | -3.59 ± 0.22 | -1.81 ± 0.17
8 | CAGGAGCAAUAUUACGGCGA | -2.73 ± 0.29 | -3.49 ± 0.29
9 | CAGGAGCAAUAUUACGGGGU | -3.38 ± 0.23 | -2.19 ± 0.24
10 | CAGGAGCAAUAUUACGGUUA | -3.1 ± 0.37 | -3.41 ± 0.4
11 | CAGGAGCAAUAUUACGUAGC |  | -2.7 ± 0.36
12 | CAGGAGCAAUAUUACGUCUA | -1.43 ± 0.13 | -1.68 ± 0.14
13 | CAGGAGCAAUAUUACGUGAC | -2.45 ± 0.19 | 
14 | CAGGAGCAAUAUUACGUUUG | -3.14 ± 0.14 | -1.43 ± 0.14
15 | CAGUAGCAAUAUUACGAAUC | -3.49 ± 0.33 | 
16 | CAGUAGCAAUAUUACGAGCC | -3.88 ± 0.37 | -3.14 ± 0.47
17 | CAGUAGCAAUAUUACGAGGA | -3.13 ± 0.24 | -1.77 ± 0.2
18 | CAGUAGCAAUAUUACGAGGC | -3.19 ± 0.17 | -2.94 ± 0.3
19 | CAGUAGCAAUAUUACGAGUC | -4.27 ± 0.27 | -2.36 ± 0.17
20 | CAGUAGCAAUAUUACGAUUU | -2.52 ± 0.19 | -1.45 ± 0.17
21 | CAGUAGCAAUAUUACGCAUC |  | -1.82 ± 0.26
22 | CAGUAGCAAUAUUACGCCGG | -0.444 ± 0.21 | -0.309 ± 0.28
23 | CAGUAGCAAUAUUACGCGCG | -0.327 ± 0.16 | 0.324 ± 0.18
24 | CAGUAGCAAUAUUACGCGGC | -2.92 ± 0.32 | -2.14 ± 0.5
25 | CAGUAGCAAUAUUACGCGGU | -2.74 ± 0.12 | -2.94 ± 0.19

Row | Sequence | self-splicing fitness (ln) (30 °C) | self-splicing fitness (ln) (37 °C)
26 | CAGUAGCAAUAUUACGCUAC | -4.2 ± 0.3 | -2.7 ± 0.23
27 | CAGUAGCAAUAUUACGCUUC | -3.45 ± 0.3 | -2.74 ± 0.28
28 | CAGUAGCAAUAUUACGGAGC |  | -1.75 ± 0.33
29 | CAGUAGCAAUAUUACGGCAG | -0.259 ± 0.073 | 0.0185 ± 0.1
30 | CAGUAGCAAUAUUACGGCCG | -0.034 ± 0.13 | 0.348 ± 0.2
31 | CAGUAGCAAUAUUACGGGAC | -4.57 ± 0.28 | -3.56 ± 0.2
32 | CAGUAGCAAUAUUACGGGGC | -2.54 ± 0.15 | -2.55 ± 0.23
33 | CAGUAGCAAUAUUACGGUAA | -3.19 ± 0.31 | -1.57 ± 0.22
34 | CAGUAGCAAUAUUACGUCCU | -3.2 ± 0.18 | -1.43 ± 0.14
35 | CAGUAGCAAUAUUACGUGGU | -2.56 ± 0.13 | -2.54 ± 0.17
36 | CAGUAGCAAUAUUACGUUUG | -1.35 ± 0.08 | -0.625 ± 0.11
37 | CAUAAGCAAUAUUACGAAUU | -3.44 ± 0.27 | -1.52 ± 0.22
38 | CAUAAGCAAUAUUACGACAC | -2.18 ± 0.15 | -2.12 ± 0.27
39 | CAUAAGCAAUAUUACGACCA |  | -2.1 ± 0.36
40 | CAUAAGCAAUAUUACGACUU | -3.55 ± 0.24 | -1.5 ± 0.16
41 | CAUAAGCAAUAUUACGAGAU | -3.53 ± 0.15 | -3.51 ± 0.23
42 | CAUAAGCAAUAUUACGAUAU | -3.41 ± 0.28 | -2.86 ± 0.32
43 | CAUAAGCAAUAUUACGGAAG | -1.43 ± 0.075 | -0.578 ± 0.096
44 | CAUAAGCAAUAUUACGGAGG | -2.3 ± 0.11 | -0.959 ± 0.13
45 | CAUAAGCAAUAUUACGUAUU | -3.24 ± 0.19 | -3.09 ± 0.19
46 | CAUAAGCAAUAUUACGUCAA | -3.33 ± 0.27 | -2.61 ± 0.3
47 | CAUAAGCAAUAUUACGUCCA | -3.32 ± 0.33 | -1.87 ± 0.22
48 | CAUAAGCAAUAUUACGUCGA | -3.41 ± 0.26 | -2.86 ± 0.17
49 | CAUAAGCAAUAUUACGUCUG | -0.477 ± 0.065 | -0.45 ± 0.082
50 | CAUAAGCAAUAUUACGUCUU | -3.71 ± 0.17 | -2.41 ± 0.19

Row | Sequence | self-splicing fitness (ln) (30 °C) | self-splicing fitness (ln) (37 °C)
51 | CAUCAGCAAUAUUACGAAAG | -0.638 ± 0.065 | -0.249 ± 0.087
52 | CAUCAGCAAUAUUACGAAGG | -0.555 ± 0.048 | -0.58 ± 0.066
53 | CAUCAGCAAUAUUACGAAUC | -1.97 ± 0.13 | -1.25 ± 0.12
54 | CAUCAGCAAUAUUACGACAC | -1.78 ± 0.21 | -3.05 ± 0.37
55 | CAUCAGCAAUAUUACGACAG | 0.0306 ± 0.087 | 0.00869 ± 0.13
56 | CAUCAGCAAUAUUACGACUC | -1.82 ± 0.26 | -0.687 ± 0.23
57 | CAUCAGCAAUAUUACGAGUG | -2.26 ± 0.11 | -0.515 ± 0.1
58 | CAUCAGCAAUAUUACGAGUU | -4.08 ± 0.19 | -2.53 ± 0.12
59 | CAUCAGCAAUAUUACGAUAA | -1.46 ± 0.092 | -0.079 ± 0.088
60 | CAUCAGCAAUAUUACGAUAC | -2.95 ± 0.16 | -1.75 ± 0.16
61 | CAUCAGCAAUAUUACGCAAA | -2.39 ± 0.15 | -2.48 ± 0.21
62 | CAUCAGCAAUAUUACGGAGA | -1.78 ± 0.14 | -1.3 ± 0.12
63 | CAUCAGCAAUAUUACGGAGU | -2.65 ± 0.12 | -0.842 ± 0.11
64 | CAUCAGCAAUAUUACGGAUC | -1.79 ± 0.088 | 0.216 ± 0.11
65 | CAUCAGCAAUAUUACGGCAA | -3.37 ± 0.21 | -2.1 ± 0.2
66 | CAUCAGCAAUAUUACGGGAG | -0.766 ± 0.054 | -0.2 ± 0.075
67 | CAUCAGCAAUAUUACGGUAU | -2.95 ± 0.13 | -1.13 ± 0.14
68 | CAUCAGCAAUAUUACGUAUA | -1.68 ± 0.095 | -0.354 ± 0.11
69 | CAUCAGCAAUAUUACGUCAU | -3.06 ± 0.1 | -1.78 ± 0.12
70 | CAUCAGCAAUAUUACGUCUC | -3.16 ± 0.19 | -1.75 ± 0.17
71 | CAUCAGCAAUAUUACGUGUG | -2.72 ± 0.092 | -1.38 ± 0.08
72 | CAUCAGCAAUAUUACGUUAU | -3.34 ± 0.12 | -2.02 ± 0.11
73 | CAUCAGCAAUAUUACGUUGG | -1.58 ± 0.059 | -0.639 ± 0.067
74 | CAUGAGCAAUAUUACGACCG | -0.701 ± 0.12 | 0.276 ± 0.14
75 | CAUGAGCAAUAUUACGACGA | -2.3 ± 0.3 | -1.85 ± 0.21

Row | Sequence | self-splicing fitness (ln) (30 °C) | self-splicing fitness (ln) (37 °C)
76 | CAUGAGCAAUAUUACGAGCG | -0.045 ± 0.092 | 0.443 ± 0.11
77 | CAUGAGCAAUAUUACGAUGA | -3.5 ± 0.2 | -2.48 ± 0.15
78 | CAUGAGCAAUAUUACGAUGG | -1.36 ± 0.1 | -0.83 ± 0.13
79 | CAUGAGCAAUAUUACGAUGU | -2.32 ± 0.19 | -2.72 ± 0.36
80 | CAUGAGCAAUAUUACGGGGA | -3.14 ± 0.19 | -3.03 ± 0.22
81 | CAUGAGCAAUAUUACGGGGC | -4.13 ± 0.43 | -2.35 ± 0.34
82 | CAUGAGCAAUAUUACGGUCA | -2.96 ± 0.2 | -2.57 ± 0.22
83 | CAUGAGCAAUAUUACGGUCU | -3.11 ± 0.28 | -1.2 ± 0.18
84 | CAUGAGCAAUAUUACGUCAA | -4.04 ± 0.33 | -2.64 ± 0.33
85 | CAUGAGCAAUAUUACGUUAA | -3.17 ± 0.32 | -2.29 ± 0.26
86 | CAUUAGCAAUAUUACGAAGC | -2.81 ± 0.32 | -2.44 ± 0.49
87 | CAUUAGCAAUAUUACGACAG | 0.268 ± 0.06 | 0.168 ± 0.071
88 | CAUUAGCAAUAUUACGAGGA | -2.75 ± 0.35 | 
89 | CAUUAGCAAUAUUACGAGUC |  | -1.48 ± 0.37
90 | CAUUAGCAAUAUUACGCAAA |  | -2.25 ± 0.32
91 | CAUUAGCAAUAUUACGCACA | -1.01 ± 0.16 | -0.408 ± 0.13
92 | CAUUAGCAAUAUUACGCACG | -0.832 ± 0.12 | 0.325 ± 0.14
93 | CAUUAGCAAUAUUACGCAUU | -3.32 ± 0.15 | -1.62 ± 0.094
94 | CAUUAGCAAUAUUACGCGAA | -2.65 ± 0.19 | -1.17 ± 0.19
95 | CAUUAGCAAUAUUACGCGGU | -2.75 ± 0.33 | -2.05 ± 0.42
96 | CAUUAGCAAUAUUACGCGUA | -1.76 ± 0.22 | -1.2 ± 0.18
97 | CAUUAGCAAUAUUACGCUGA | -3.13 ± 0.24 | -1.96 ± 0.26
98 | CAUUAGCAAUAUUACGCUUG | -2.46 ± 0.2 | -2.6 ± 0.2
